Laboratory results reported in paper PMC4256095.

Molecular target: actin (UniProt P68135)
Experiment: other fluorescence titration

Sequence of recombinant human cofilin (P23528 whole entry): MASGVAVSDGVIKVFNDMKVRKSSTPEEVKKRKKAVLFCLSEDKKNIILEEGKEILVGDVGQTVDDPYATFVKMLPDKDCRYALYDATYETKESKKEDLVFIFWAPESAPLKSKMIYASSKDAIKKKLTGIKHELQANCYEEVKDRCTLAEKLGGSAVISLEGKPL

binding density (νcof) at 3 µM cofilin: > 0.9
Substance: recombinant human cofilin (from UniProt P23528 1-166) (natural protein)
